Here are results for five molecules from patent US20160009782A1 (Stanford University, published 2016).

The target in assay [1] is T1, oligomerized synthetic human Aβ1-42 peptide (oligo-Aβ42) (human, N-terminal biotin (biotinylated peptide used in the cell, neuron and streptavidin pull-down assays)).
T1 construct: Soluble oligomer mixture, mainly high-n oligomers; About 10-20% stays as monomer or low-n oligomer; Concentrations are monomer equivalents of total peptide; this is probably a misprint, since the peptide used was bought as human Aβ1-42; Both biotinylated and non-biotinylated peptides were obtained; also called Aβ42 oligomers; oligomerized Aβ42
Description: Aβ42 oligomers on transfected HEK293 cells, fluorescence staining. An excerpt:
(§1) The bound Aβ peptides were visualized with streptavidin-Alexa fluorophore conjugates (Alexa 488, 598 or 647; wavelength choice depending on experiments) (J. Lauren, et al. (2009) “Cellular prion protein mediates impairment of synaptic plasticity by amyloid-beta oligomers.” Nature 457, 1128). […] Fluorescent images were captured with fixed illumination and exposure time using a Nikon 20× objective of numerical aperture 0.75, and then fluorescence intensity was quantified using ImageJ software (NIH). In each experiment, values from control vector transfected cells were used as background, and subtracted from those of experimental cells.

In assay [2] the target is T1, oligomerized synthetic human Aβ1-42 …. Briefly: Aβ42 oligomers pulled down with purified Fc fusion protein, Western blot for Aβ, normalised band intensity (n=3). From the text:
Data are mean±SEM (n=5). […] Mean±SEM. […] Bottom: bar graphs of average band intensities±SEM from experiments such as that shown in FIG. 10C (n=3; see also FIG. 2H). […] Top, right: Western blot with anti-Aβ antibodies specific for oligomeric forms (OMAB; see FIG. 10D); Bottom, left: quantification of Aβ42 binding. Normalized average band intensities±SEM (n=3).
For orientation: In western blotting, separated proteins are transferred to a membrane and probed.

Assay [3] shares this target. Description: oligo-Aβ42 on transfected HEK293 cells, fluorescence, control-vector cells subtracted.
Text: Bottom: bar graphs of average band intensities±SEM from experiments such as that shown in FIG. 10C (n=3; see also FIG. 2H). […] Top, right: Western blot with anti-Aβ antibodies specific for oligomeric forms (OMAB; see FIG. 10D); Bottom, left: quantification of Aβ42 binding. Normalized average band intensities±SEM (n=3).
as §1

For assay [4] the target is unchanged. Description: oligomerized Aβ42 immunoprecipitated with soluble Fc fusion protein, Western blot α-Aβ (4G8) and α-oligo Aβ (OMAB). An excerpt:
Mean±SEM. […] Bottom: bar graphs of average band intensities±SEM from experiments such as that shown in FIG. 10C (n=3; see also FIG. 2H). […] Top, right: Western blot with anti-Aβ antibodies specific for oligomeric forms (OMAB; see FIG. 10D); Bottom, left: quantification of Aβ42 binding. Normalized average band intensities±SEM (n=3).
The Aβ signals were quantified as described above.

Assay [5] shares this target. Description: synthetic Aβ42 oligomers immunoprecipitated with PirB-Fc proteins, Western blot α-Aβ (6E10), fully reduced.

B1: human LilrB1 expressed in HEK293 cells (receptor, UniProt Q8NHL6 24-650, looked up)
chain: GHLPKPTLWAEPGSVITQGSPVTLRCQGGQETQEYRLYREKKTALWITRIPQELVKKGQFPIPSITWEHAGRYRCYYGSDTAGRSESSDPLELVVTGAYIKPTLSAQPSPVVNSGGNVILQCDSQVAFDGFSLCKEGEDEHPQCLNSQPHARGSSRAIFSVGPVSPSRRWWYRCYAYDSNSPYEWSLPSDLLELLVLGVSKKPSLSVQPGPIVAPEETLTLQCGSDAGYNRFVLYKDGERDFLQLAGAQPQAGLSQANFTLGPVSRSYGGQYRCYGAHNLSSEWSAPSDPLDILIAGQFYDRVSLSVQPGPTVASGENVTLLCQSQGWMQTFLLTKEGAADDPWRLRSTYQSQKYQAEFPMGPVTSAHAGTYRCYGSQSSKPYLLTHPSDPLELVVSGPSGGPSSPTTGPTSTSGPEDQPLTPTGSDPQSGLGRHLGVVIGILVAVILLLLLLLLLFLILRHRRQGKHWTSTQRKADFQHPAGAVGPEPTDRGLQWRSSPAADAQEENLYAAVKHTQPEDGVEMDTRSPHDEDPQAVTYAEVKHSRPRREMASPPSPLSGEFLDTKDRQAEEDRQMDTEAAASEAPQDVTYAQLHSLTLRREATEPPPSQEGPSPAVPSIYATLAIH
notes: whole, on cells; not shown: C-terminal Myc tag
On to B1, for which the binding result in assay [1] is reported as “no binding (tested: 200 nM)”.

B2: LilrB2 (D3D4)-Fc, LilrB2 residues 219-458 fused to human IgG1-Fc (Fc fusion)
chain: PGVSKKPSLSVQPGPVVAPGESLTLQCVSDVGYDRFVLYKEGERDLRQLPGRQPQAGLSQANFTLGPVSRSYGGQYRCYGAHNLSSECSAPSDPLDILITGQIRGTPFISVQPGPTVASGENVTLLCQSWRQFHTFLLTKAGAADAPLRLRSIHEYPKYQAEFPMSPVTSAHAGTYRCYGSLNSDPYLLSHPSEPLELVVSGPSMGSSPPPTGPISTPAGPEDQPLTPTGSDPQSGLGRH
notes: not shown: human IgG1-Fc from the pFUSE-hIgG1e3-Fc2 vector (InvivoGen); exact limits, linker and any engineered changes are not sta
Take B2: the binding result in assay [2] is “no binding”.

B3: human killer immune receptor Kir (3DL1) expressed in HEK293 cells (receptor, UniProt P43629 22-444, looked up)
chain: HMGGQDKPFLSAWPSAVVPRGGHVTLRCHYRHRFNNFMLYKEDRIHIPIFHGRIFQESFNMSPVTTAHAGNYTCRGSHPHSPTGWSAPSNPVVIMVTGNHRKPSLLAHPGPLVKSGERVILQCWSDIMFEHFFLHKEGISKDPSRLVGQIHDGVSKANFSIGPMMLALAGTYRCYGSVTHTPYQLSAPSDPLDIVVTGPYEKPSLSAQPGPKVQAGESVTLSCSSRSSYDMYHLSREGGAHERRLPAVRKVNRTFQADFPLGPATHGGTYRCFGSFRHSPYEWSDPSDPLLVSVTGNPSSSWPSPTEPSSKSGNPRHLHILIGTSVVIILFILLLFFLLHLWCSNKKNAAVMDQEPAGNRTANSEDSDEQDPEEVTYAQLDHCVFTQRKITRPSQRPKTPPTDTILYTELPNAKPRSKVVSCP
notes: whole, on cells
Turning to B3, in assay [3], the binding result is on record as “no binding (tested: 200 nM)”.

B4: PirB (D5D6)-Fc, PirB residues 419-643 fused to human IgG1-Fc (Fc fusion)
chain: GLSKKPSLLTHQGHILDPGMTLTLQCFSDINYDRFALHKVGGADIMQHSSQQTDTGFSVANFTLGYVSSSTGGQYRCYGAHNLSSEWSASSEPLDILITGQLPLTPSLSVQPNHTVHSGETVSLLCWSMDSVDTFILSKEGSAQQPLRLKSKSHDQQSQAEFSMSAVTSHLSGTYRCYGAQDSSFYLLSSASAPVELTVSGPIETSTPPPTMSMPLGGLHMYLKA
notes: Used as the negative control in the pull-down assays; not shown: human IgG1-Fc from the pFUSE-hIgG1e3-Fc2 vector (InvivoGen); exact limits, linker and any engineered changes are not sta
On to B4, for which the binding result in assay [4] is reported as “no binding”.

B5: D3D6 (PirB-Fc) (Fc fusion)
chain: GNLQKPTIKAEPGSVITSKRAMTIWCQGNLDAEVYFLHNEKSQKTQSTQTLQEPGNKGKFFIPSVTLQHAGQYRCYCYGSAGWSQPSDTLELVVTGIYEYYEPRLSVLPSPVVTAGGNMTLHCASDFPYDKFILTKEDKKFGNSLDTEHISSSGQYRALFIIGPTTPTHTGAFRCYGYYKNAPQLWSVPSALQQILISGLSKKPSLLTHQGHILDPGMTLTLQCFSDINYDRFALHKVGGADIMQHSSQQTDTGFSVANFTLGYVSSSTGGQYRCYGAHNLSSEWSASSEPLDILITGQLPLTPSLSVQPNHTVHSGETVSLLCWSMDSVDTFILSKEGSAQQPLRLKSKSHDQQSQAEFSMSAVTSHLSGTYRCYGAQDSSFYLLSSASAPVELTVSGPIETSTPPPTMSMPLGGLHMYLKA
modifications: Fc-mediated homodimer; one chain given
notes: not in the list MOLECULES; also called PirB (D3D6)-Fc; PirB:221-643 (D3D6); not shown: human IgG1-Fc of vector pFUSE-hIgG1e3-Fc2 (InvivoGen) and the cloning-junction residues
As to B5, in assay [5], the binding result was “no binding”.
